Common to all, as to assay: IEDB peptide-MHC binding, purified MHC/competitive/radioactivity; filed as Kd, often an IC50 or EC50 that approximates it; ≥ and ≤ were set here for values at or beyond the usual limits of such assays
Assay [1] has as its target HLA-A*11:01.
Assay [2] deals with HLA-A*31:01.
The target of assay [3] is HLA-A*03:01.
The target of assay [4] is HLA-A*33:01.
Assay [5] addresses HLA-A*68:01.
The mark [6] stands for this setting: source organism: SARS coronavirus Tor2.
[7] abbreviates: source organism: Dengue virus 3 Martinique/1243/1999.
[8] abbreviates: source organism: Dengue virus 2 Jamaica/1409/1983.
[9] abbreviates: source organism: Vaccinia virus WR.
The mark [10] stands for this setting: source organism: Dengue virus 4 Philippines/H241/1956.
Setting [11] is: source organism: Dengue virus 2 Peru/IQT2913/1996.
Where [12] appears, read: source organism: Lymphocytic choriomeningitis virus (strain Armstrong).
Setting [13] is: source organism: Mammarenavirus brazilense.

Where only a bound is given, the exact number is not on record here.

Data on 28 sequences can be found in the Immune Epitope Database (IEDB).

Turning to LAMDEFIQR, the Kd in assay [1] (setting [6]) was 2390 nM; in assay [2] (setting [6]) it was 362 nM; in assay [3] (setting [6]), not below 78000 nM; in assay [4] (setting [6]), 1450 nM; in assay [5] (setting [6]) it was 612 nM.
Regarding PVNQFTGYLK, the dissociation constant (Kd) in assay [1] (setting [6]) was 764 nM; in assay [2] (setting [6]), not below 70000 nM; in assay [3] (setting [6]), 5330 nM; in assay [4] (setting [6]), not below 61900 nM; in assay [5] (setting [6]) it was 2260 nM.
As for SIMKSVGTGK, the results for the Kd in assay [1] (setting [7]) and in assay [3] (setting [7]) were 20.5 nM and 8.3 nM, respectively.
With NMLKRERNR, in assay [4] (setting [8]), the Kd was 79 nM.
For the sequence MMKLGISPSK, the Kd was 27.1 nM in assay [1] (setting [9]); 382 nM in assay [2] (setting [9]); 11.5 nM in assay [3] (setting [9]); 10600 nM in assay [4] (setting [9]); 81.1 nM in assay [5] (setting [9]).
As for WSYYMATLK, the results for the dissociation constant Kd in assay [1] (setting [10]), in assay [3] (setting [10]) and in assay [5] (setting [10]) were 16.1 nM, 3.33 nM and 1.83 nM, respectively.
As to YVSAIAQAK, the Kd in assay [5] (source organism: Dengue virus 1 Brazil/97-11/1997) came out at 36.2 nM.
Take MIKMFSQIDR: the Kd in assay [1] (setting [9]) came to 3790 nM; in assay [2] (setting [9]) it was 2.43 nM; in assay [3] (setting [9]) it was 2250 nM; in assay [4] (setting [9]), 45.3 nM; in assay [5] (setting [9]) it was 1.6 nM.
Take VTAASAAQRR: the Kd in assay [5] (setting [7]) was 42.4 nM.
As to ETFKIDAVRY, the Kd in assay [1] (setting [9]) was not below 25100 nM; in assay [2] (setting [9]), not below 41300 nM; in assay [3] (setting [9]), not below 70100 nM; in assay [4] (setting [9]), not below 70000 nM; in assay [5] (setting [9]), 46.9 nM.
On the same counts, the results for KSRRLNLFSK are 1090 nM, 647 nM, 640 nM, not below 70000 nM and not below 70200 nM.
In the case of TTFITPMLR, the Kd was 84.4 nM in assay [1] (setting [11]); 27.1 nM in assay [2] (setting [11]); 13.2 nM in assay [3] (setting [11]); 11.7 nM in assay [4] (setting [11]); 6.76 nM in assay [5] (setting [11]).
Take YVCKHTYVDR: the dissociation constant Kd came out at 133 nM in assay [2] (setting [7]) and 890 nM in assay [5] (setting [7]).
As for ELTLDCEPR, the Kd in assay [4] (setting [10]) was found to be 32 nM; in assay [5] (setting [10]), 229 nM.
For the sequence TVNICIFYDR, the Kd in assay [1] (setting [9]) worked out at 151 nM; in assay [2] (setting [9]), 12.3 nM; in assay [3] (setting [9]) it was 414 nM; in assay [4] (setting [9]), 72.8 nM; in assay [5] (setting [9]) it was 27.7 nM.
As to CAVHLIIYY, the Kd was 788 nM in assay [1] (setting [9]); 4950 nM in assay [2] (setting [9]); 10100 nM in assay [3] (setting [9]); not below 21100 nM in assay [4] (setting [9]); 24.5 nM in assay [5] (setting [9]).
With RMLNILNRR, the Kd in assay [2] (setting [8]) amounted to 2.42 nM.
Take SCQGSDDIRK: the Kd in assay [1] (setting [12]) is 18300 nM; in assay [2] (setting [12]), 9930 nM; in assay [3] (setting [12]) it was not below 70000 nM; in assay [4] (setting [12]) it was not below 70000 nM; in assay [5] (setting [12]), not below 70100 nM.
As for NVHEHINDQK, the equilibrium dissociation constant (Kd) in assay [1] (setting [9]) is 18400 nM; in assay [2] (setting [9]), not below 70000 nM; in assay [3] (setting [9]) it was 4050 nM; in assay [4] (setting [9]), not below 29200 nM; in assay [5] (setting [9]), 4.38 nM.
With KVKTELVMDK, the dissociation constant (Kd) in assay [1] (setting [9]) was 409 nM; in assay [2] (setting [9]), 120 nM; in assay [3] (setting [9]), 1330 nM; in assay [4] (setting [9]), not below 70000 nM; in assay [5] (setting [9]), not below 48600 nM.
The corresponding values for RLGLVLDDYK are 37.8 nM, 2220 nM, 48.9 nM, not below 70000 nM and 506 nM.
For CSSLTEEFYH, the Kd in assay [1] (setting [13]) was 8680 nM; in assay [2] (setting [13]), 3360 nM; in assay [5] (setting [13]), not below 31900 nM.
In the case of RFQPFQQFGR, the Kd was not below 35100 nM in assay [1] (setting [6]); 1.06 nM in assay [2] (setting [6]); 13500 nM in assay [3] (setting [6]); 1300 nM in assay [4] (setting [6]); 540 nM in assay [5] (setting [6]).
As for GAMLFLISGK, the results for the Kd in assay [1] (setting [7]) and in assay [3] (setting [7]) were 42.6 nM and 3.85 nM, respectively.
Take HINTLIQYR: the Kd is 197 nM in assay [1] (setting [9]); 6.05 nM in assay [2] (setting [9]); 191 nM in assay [3] (setting [9]); 16.5 nM in assay [4] (setting [9]); 14.8 nM in assay [5] (setting [9]).
Consider AFHTPAFDK, for which the Kd in assay [1] (setting [6]) is 957 nM; in assay [2] (setting [6]), 5640 nM; in assay [3] (setting [6]), 1430 nM; in assay [4] (setting [6]), not below 33200 nM; in assay [5] (setting [6]), 8590 nM.
Take QFNFNGHTY: the Kd in assay [1] (setting [9]) was 14200 nM; in assay [2] (setting [9]) it was 565 nM; in assay [3] (setting [9]) it was 5300 nM; in assay [4] (setting [9]) it was not below 64600 nM; in assay [5] (setting [9]) it was 175 nM.
The corresponding values for EQLSKYVEK are 9.75 nM, 506 nM, 149 nM, 832 nM and 161 nM.
